Values belong to the binder of their own block, whether it stands above or below them.
How the values were obtained:
Conditions in all cases: both partners purified
[1] = biological target: T1, PDIA5 on the HuProt human protein chip (human, UniProt Q14554 22-519); experiment: peptide or protein array; human ABHD5 recombinant protein used to probe the HuProt human protein chip
T1 construct: PDIA5, human, as spotted on the HuProt human protein chip; source: spotted on the HuProt human protein chip
T1 sequence (looked up): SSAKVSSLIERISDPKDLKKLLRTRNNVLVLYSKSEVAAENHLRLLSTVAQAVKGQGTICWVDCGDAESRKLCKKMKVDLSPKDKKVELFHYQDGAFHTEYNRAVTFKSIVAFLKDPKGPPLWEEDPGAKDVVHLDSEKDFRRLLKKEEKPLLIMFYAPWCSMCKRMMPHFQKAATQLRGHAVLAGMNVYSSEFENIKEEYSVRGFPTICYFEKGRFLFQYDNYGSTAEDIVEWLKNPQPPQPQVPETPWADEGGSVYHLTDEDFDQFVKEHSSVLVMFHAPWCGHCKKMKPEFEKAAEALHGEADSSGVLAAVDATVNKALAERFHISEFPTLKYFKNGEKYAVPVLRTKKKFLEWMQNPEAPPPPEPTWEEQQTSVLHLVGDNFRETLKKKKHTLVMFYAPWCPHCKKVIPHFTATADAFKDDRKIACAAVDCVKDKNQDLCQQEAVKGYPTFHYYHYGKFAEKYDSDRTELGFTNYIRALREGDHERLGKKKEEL

[2] = biological target: T2, GST-tagged wild type PDIA5 (human, UniProt Q14554 22-519); experiment: pull-down; Ni-NTA bead pull-down: 50 ug GST, GST-PDIA5 or mutant GST-PDIA5 with 50 ug immobilized His-ABHD5 or His-RNASET2; 20 mM Tris pH 8.0, 100 mM NaCl, 0.2% Triton X-100; 4 C, 4 h; eluates blotted with anti-GST
T2 construct: PDIA5, human, wild type; also called GST-PDIA5; wild type PDIA5 (W); source: expressed and purified; recombinant protein from Wuhan GeneCreate Biological Engineering Co., Ltd
T2 sequence (looked up): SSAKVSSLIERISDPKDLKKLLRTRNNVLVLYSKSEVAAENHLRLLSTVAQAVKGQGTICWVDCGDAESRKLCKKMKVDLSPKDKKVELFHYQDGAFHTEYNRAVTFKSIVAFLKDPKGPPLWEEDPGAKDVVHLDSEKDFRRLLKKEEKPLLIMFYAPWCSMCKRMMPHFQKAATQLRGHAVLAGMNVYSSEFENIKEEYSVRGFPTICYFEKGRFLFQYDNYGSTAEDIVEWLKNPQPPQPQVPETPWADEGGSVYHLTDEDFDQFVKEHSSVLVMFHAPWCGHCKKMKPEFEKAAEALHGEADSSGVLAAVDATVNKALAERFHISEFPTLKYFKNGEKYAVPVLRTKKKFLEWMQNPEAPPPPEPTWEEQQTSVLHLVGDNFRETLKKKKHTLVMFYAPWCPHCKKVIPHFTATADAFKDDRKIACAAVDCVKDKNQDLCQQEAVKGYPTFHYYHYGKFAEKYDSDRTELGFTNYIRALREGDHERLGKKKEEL

His-PDIA5 = biological target: T3, His-PDIA5 (human, UniProt Q14554 22-519); experiment: pull-down; competitive binding: 50 ug GST-RNASET2 mixed with 0, 50, 100, 200 ug GST-ABHD5, incubated with 50 ug immobilized His-PDIA5 at 4 C for 4 h; detected by blot
T3 construct: PDIA5, human, wild type; source: recombinant protein from Wuhan GeneCreate Biological Engineering Co., Ltd
T3 sequence (looked up): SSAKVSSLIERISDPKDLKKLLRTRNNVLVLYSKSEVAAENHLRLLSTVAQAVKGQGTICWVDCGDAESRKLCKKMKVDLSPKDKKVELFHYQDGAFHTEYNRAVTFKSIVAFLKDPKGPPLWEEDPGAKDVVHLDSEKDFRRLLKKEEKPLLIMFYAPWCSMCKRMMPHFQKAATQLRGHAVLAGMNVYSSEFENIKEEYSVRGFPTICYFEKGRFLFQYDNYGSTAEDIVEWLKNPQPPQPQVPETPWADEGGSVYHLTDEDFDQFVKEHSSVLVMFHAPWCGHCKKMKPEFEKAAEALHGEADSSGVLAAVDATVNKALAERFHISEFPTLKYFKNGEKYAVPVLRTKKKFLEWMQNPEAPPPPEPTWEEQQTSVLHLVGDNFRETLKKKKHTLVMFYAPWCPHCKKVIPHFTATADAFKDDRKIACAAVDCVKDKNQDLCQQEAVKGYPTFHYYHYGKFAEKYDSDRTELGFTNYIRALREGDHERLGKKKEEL

- binding result [1]: binds
B1: human ABHD5 recombinant protein (probe on the HuProt chip) (natural protein, UniProt Q8WTS1 1-349, looked up)
chain: MAAEEEEVDSADTGERSGWLTGWLPTWCPTSISHLKEAEEKMLKCVPCTYKKEPVRISNGNKIWTLKFSHNISNKTPLVLLHGFGGGLGLWALNFGDLCTNRPVYAFDLLGFGRSSRPRFDSDAEEVENQFVESIEEWRCALGLDKMILLGHNLGGFLAAAYSLKYPSRVNHLILVEPWGFPERPDLADQDRPIPVWIRALGAALTPFNPLAGLRIAGPFGLSLVQRLRPDFKRKYSSMFEDDTVTEYIYHCNVQTPSGETAFKNMTIPYGWAKRPMLQRIGKMHPDIPVSVIFGARSCIDGNSGTSIQSLRPHSYVKTIAILGAGHYVYADQPEEFNQKVKEICDTVD
notes: ABHD5, human, recombinant protein used to probe the HuProt human protein chip; The methods list two recombinant ABHD5 proteins: His-ABHD5 (Wuhan GeneCreate) and ABHD5 (Human) recombinant protein H00051099-P01 (Novus)

- binding result [2]: binds
B2: His-tagged full-length ABHD5 (natural protein, human, UniProt Q8WTS1 1-349, looked up)
chain: MAAEEEEVDSADTGERSGWLTGWLPTWCPTSISHLKEAEEKMLKCVPCTYKKEPVRISNGNKIWTLKFSHNISNKTPLVLLHGFGGGLGLWALNFGDLCTNRPVYAFDLLGFGRSSRPRFDSDAEEVENQFVESIEEWRCALGLDKMILLGHNLGGFLAAAYSLKYPSRVNHLILVEPWGFPERPDLADQDRPIPVWIRALGAALTPFNPLAGLRIAGPFGLSLVQRLRPDFKRKYSSMFEDDTVTEYIYHCNVQTPSGETAFKNMTIPYGWAKRPMLQRIGKMHPDIPVSVIFGARSCIDGNSGTSIQSLRPHSYVKTIAILGAGHYVYADQPEEFNQKVKEICDTVD
notes: ABHD5, human, wild type, full length; also called His-ABHD5; source: recombinant protein from Wuhan GeneCreate Biological Engineering Co., Ltd

- binding result (His-PDIA5): binds
B3: GST-ABHD5 (natural protein, human, UniProt Q8WTS1 1-349, looked up)
chain: MAAEEEEVDSADTGERSGWLTGWLPTWCPTSISHLKEAEEKMLKCVPCTYKKEPVRISNGNKIWTLKFSHNISNKTPLVLLHGFGGGLGLWALNFGDLCTNRPVYAFDLLGFGRSSRPRFDSDAEEVENQFVESIEEWRCALGLDKMILLGHNLGGFLAAAYSLKYPSRVNHLILVEPWGFPERPDLADQDRPIPVWIRALGAALTPFNPLAGLRIAGPFGLSLVQRLRPDFKRKYSSMFEDDTVTEYIYHCNVQTPSGETAFKNMTIPYGWAKRPMLQRIGKMHPDIPVSVIFGARSCIDGNSGTSIQSLRPHSYVKTIAILGAGHYVYADQPEEFNQKVKEICDTVD
notes: ABHD5, human

Source: publication PMC6403256, “ABHD5 blunts the sensitivity of colorectal cancer to fluorouracil via promoting autophagic uracil yield” (Nature Communications, 2019)
